The supplement of paper PMC10126150
± gives the standard deviation of the averaged measurements.

test system: ATP; assay: switch fluorescence ratio, 500 uM ATP over buffer (Cy3 cluster intensity, sum of 5 cycles each) (fold (ratio)); higher = stronger signal-on switching upon ATP binding; sequences stand for … in TCGTCGGCAGCGTCAGATGTGTATAAGAGACAGTTTTTTTTTTTTTTTTTTTTTTTTT…TC; details: aptamer strand: ATP DNA aptamer (quencher-CACCTGGGGGAGTATTGCGGAGGAAGG + anchor), 100 nM annealed; ATP concentration: 500 uM
Method in brief: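 After annealing to 100 nM quencher-labelled ATP aptamer, Cy3-labelled switching-strand clusters on a modified Illumina MiSeq flow-cell were imaged in selection buffer. A second image followed after 15 min with 500 uM ATP at 22 °C, and five such buffer/ATP cycles were done, each separated by NaOH stripping and re-annealing. The fluorescence ratio, averaged per switch-domain sequence, is summed target-cycle over summed buffer-cycle Cy3 intensity per cluster, with clusters outside 100-1000 RFU excluded.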
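Note: ATP exposure 15 min at 22 °C before imaging.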

Sequence	switch fluorescence ratio
TGAGAGGAGT	0.9911 ± 0.0013
TGAGAGTTAA	0.961 ± 0.036
TGAGAGTTTG	0.987 ± 0.017
TGAGATACAT	1.13 ± 0.1
TGAGATGGGG	0.99 ± 0.021
TGAGATTCCT	1.09 ± 0.034
TGAGCATGGG	1 ± 0.029
TGAGCCGGGT	1.02 ± 0.033
TGAGCCTCGG	0.965 ± 0.032
TGAGCGGGAA	1.01 ± 0.02
TGAGCGGGTA	1.024 ± 0.0052
TGAGCTGCGT	1.01 ± 0.022
TGAGGAACCT	1.77 ± 0.098
TGAGGATGGA	0.975 ± 0.044
TGAGGATGTT	0.9852 ± 0.0089
TGAGGCAGGG	1.037 ± 0.0042
TGAGGCGCGG	0.97 ± 0.025
TGAGGCTGTT	1 ± 0.031
TGAGGGAGGC	1.06 ± 0.06
TGAGGGATGC	0.968 ± 0.029
TGAGGGCGTG	1.01 ± 0.014
TGAGGGGCGA	0.989 ± 0.028
TGAGGGGGAG	1.01 ± 0.04
TGAGGGGGGA	1 ± 0.036
TGAGGGTCCT	1.02 ± 0.01

Sequence	switch fluorescence ratio
TGAGGGTTTT	0.997 ± 0.02
TGAGGTACCG	1.0235 ± 0.00091
TGAGGTCAAA	1.07 ± 0.041
TGAGGTTTGT	0.98 ± 0.028
TGAGGTTTTC	1.02 ± 0.048
TGAGGTTTTT	1.28 ± 0.59
TGAGTACCGG	1.08 ± 0.1
TGAGTATATA	1.02 ± 0.014
TGAGTATGGG	0.973 ± 0.019
TGAGTCATAC	1.05 ± 0.033
TGAGTCGAGC	1.014 ± 0.0066
TGAGTCTAGG	0.9979 ± 0.0026
TGAGTCTGCT	0.998 ± 0.087
TGAGTGAGGT	0.959 ± 0.016
TGAGTGCCGG	1.18 ± 0.25
TGAGTGGCTC	0.9793 ± 0.0053
TGAGTGTCTG	0.966 ± 0.019
TGAGTGTGCT	0.972 ± 0.011
TGAGTGTTTT	0.997 ± 0.027
TGAGTTAGAT	1 ± 0.011
TGAGTTCGAA	1 ± 0.028
TGAGTTTGGC	0.9862 ± 0.0013
TGATAAAGGT	0.997 ± 0.015
TGATAATAGA	0.9953 ± 0.0011
TGATAATATT	0.992 ± 0.011

Sequence	switch fluorescence ratio
TGATAATCGG	0.997 ± 0.036
TGATACAAGC	1.05 ± 0.032
TGATACCTGT	0.975 ± 0.068
TGATAGAGCC	1.01 ± 0.023
TGATAGGACA	0.983 ± 0.023
TGATAGGTGC	1.19 ± 0.014
TGATATAGTG	1.002 ± 0.01
TGATATATGG	0.9872 ± 0.0081
TGATATCACT	0.996 ± 0.043
TGATCACTAT	1.007 ± 0.0076
TGATCGCTGG	1.02 ± 0.042
TGATGAATTG	1.04 ± 0.002
TGATGAGGAA	0.97725 ± 0.00082
TGATGCAATT	1.36 ± 0.24
TGATGCATAT	1.1411 ± 0.0011
TGATGCTTTG	0.998 ± 0.051
TGATGGAAGG	0.958 ± 0.06
TGATGGAAGT	0.986 ± 0.031
TGATGGATTG	0.99 ± 0.028
TGATGGGATG	1.01 ± 0.038
TGATGGGCGC	1.026 ± 0.0036
TGATGGGGCA	1.02 ± 0.021
TGATGGTAGG	0.981 ± 0.031
TGATGGTTTA	0.996 ± 0.03
TGATGTAGCA	0.979 ± 0.033

Sequence	switch fluorescence ratio
TGATGTTACC	1.06 ± 0.02
TGATGTTAGT	1.01 ± 0.024
TGATGTTGAA	0.99891 ± 0.00059
TGATTAAGCA	0.999 ± 0.033
TGATTAGCAA	1.26 ± 0.3
TGATTAGGGT	1.05 ± 0.076
TGATTATAGG	0.992 ± 0.01
TGATTCGTTC	1.04 ± 0.033
TGATTCTTTT	0.974 ± 0.037
TGATTGGTCA	0.967 ± 0.012
TGATTTAAGT	0.992 ± 0.05
TGATTTACAA	1.05 ± 0.015
TGATTTGGGA	0.971 ± 0.015
TGATTTGTAT	0.968 ± 0.018
TGATTTGTTT	1 ± 0.04
TGATTTTATT	0.974 ± 0.011
TGCAAATTCG	0.999 ± 0.022
TGCAAATTTT	1 ± 0.036
TGCAACGAGG	0.998 ± 0.035
TGCAACGTCG	0.998 ± 0.019
TGCAAGAGTT	1.01 ± 0.014
TGCACATGGG	1.02 ± 0.015
TGCACGTTTT	1.09 ± 0.07
TGCAGCTTGT	1.0186 ± 0.00048
TGCAGGCCAA	1.08 ± 0.026

Sequence	switch fluorescence ratio
TGCAGGGGGC	1.02 ± 0.022
TGCAGGGGTG	1.06 ± 0.022
TGCAGGGTGG	1.05 ± 0.051
TGCATCGGGG	0.983 ± 0.032
TGCATCTGAG	1 ± 0.021
TGCATGTACC	1.21 ± 0.051
TGCATGTATT	1.012 ± 0.0039
TGCATGTGTC	0.99 ± 0.035
TGCATTACCC	1.25 ± 0.41
TGCATTCATT	0.9937 ± 0.0093
TGCATTTAGG	1.02 ± 0.032
TGCATTTGGG	0.9893 ± 0.0031
TGCCAACAGA	1.25 ± 0.39
TGCCAGGAGT	1.05 ± 0.014
TGCCAGTACG	1.064 ± 0.0044
TGCCAGTGCC	1.04 ± 0.022
TGCCATTGTT	0.942 ± 0.01
TGCCCCTGGC	0.978 ± 0.042
TGCCCGGGGA	1 ± 0.037
TGCCGAGATC	1 ± 0.013
TGCCGCAGGT	1.01 ± 0.043
TGCCGCCGGG	1.03 ± 0.011
TGCCGGGGCT	0.967 ± 0.037
TGCCGGGTGG	1 ± 0.063
TGCCGTTTTT	1.02 ± 0.069

Sequence	switch fluorescence ratio
TGCCTATGGG	0.977 ± 0.029
TGCCTGGGGA	1.2 ± 0.25
TGCCTGGTAT	0.984 ± 0.019
TGCCTGTGCG	1.04 ± 0.031
TGCGAATAGG	1.0088 ± 0.00022
TGCGAATTAG	0.998 ± 0.019
TGCGACTCGG	0.9988 ± 0.0056
TGCGACTGGT	0.942 ± 0.024
TGCGACTTTG	1.03 ± 0.018
TGCGAGGGGG	1.01 ± 0.033
TGCGAGGGTT	1.01 ± 0.093
TGCGAGTATC	1.02 ± 0.018
TGCGATTGTT	1.01 ± 0.056
TGCGATTTTT	1.01 ± 0.042
TGCGCACGGG	1.03 ± 0.019
TGCGCCAGGG	1.263 ± 0.0037
TGCGCCATTT	1.13 ± 0.26
TGCGCTGTA	1.02 ± 0.018
TGCGCTTATA	1.09 ± 0.015
TGCGCTTGTG	0.97 ± 0.025
TGCGGAATAT	1.14 ± 0.064
TGCGGATATG	0.982 ± 0.023
TGCGGATGGT	0.98 ± 0.016
TGCGGGCGGC	0.98 ± 0.024
TGCGGGGAGA	1.02 ± 0.024

Sequence	switch fluorescence ratio
TGCGGGGCGG	1.02 ± 0.034
TGCGGGGGG	0.9855 ± 0.0037
TGCGGGGGGT	1.025 ± 0.0086
TGCGGGGGTC	1.04 ± 0.088
TGCGGGTGAT	0.9857 ± 0.004
TGCGGGTTAA	1.02 ± 0.024
TGCGGGTTTC	1.04 ± 0.017
TGCGGTAAA	1.09 ± 0.14
TGCGGTATGT	1.019 ± 0.0014
TGCGGTGATG	0.985 ± 0.016
TGCGGTGTAG	1.01 ± 0.011
TGCGTAGAGG	1.037 ± 0.006
TGCGTATATT	0.98 ± 0.017
TGCGTCAACT	1.01 ± 0.023
TGCGTCAGCC	1.04 ± 0.12
TGCGTCTATT	1.05 ± 0.078
TGCGTTGCGG	0.978 ± 0.029
TGCTAAAGGG	0.984 ± 0.036
TGCTAAATTG	1.015 ± 0.0015
TGCTACAAGG	1.03 ± 0.011
TGCTAGCCGG	1 ± 0.015
TGCTAGCCTG	0.9955 ± 0.004
TGCTAGGCG	1.02 ± 0.032
TGCTAGTGGT	1.01 ± 0.016
TGCTATATGT	0.993 ± 0.013

Sequence	switch fluorescence ratio
TGCTATCATC	0.989 ± 0.02
TGCTCCTTGC	1.08 ± 0.062
TGCTCGGGGG	1.15 ± 0.17
TGCTCTGCTA	1.683 ± 0.0023
TGCTCTTAGT	1.04 ± 0.079
TGCTGAAAAC	0.974 ± 0.028
TGCTGAAGGG	1.04 ± 0.03
TGCTGGATGG	0.975 ± 0.032
TGCTGGGGCT	0.9847 ± 0.0033
TGCTGTCGGC	1.03 ± 0.029
TGCTGTTTTT	0.98095 ± 0.00061
TGCTTAACAT	1.01 ± 0.019
TGCTTATCGC	0.995 ± 0.024
TGCTTCAGGG	1.03 ± 0.014
TGCTTCCCTC	1.1 ± 0.018
TGCTTCTAAT	1.02 ± 0.021
TGCTTGAGCA	0.974 ± 0.019
TGCTTGCCTT	0.9886 ± 0.0096
TGCTTGGAGG	0.996 ± 0.014
TGCTTGGGGA	0.983 ± 0.082
TGCTTGTGGG	1.026 ± 0.0015
TGCTTGTTTT	0.9912 ± 0.0038
TGCTTTATCT	1.012 ± 0.0023
TGCTTTCGTC	0.945 ± 0.031
TGCTTTGGTT	1.01 ± 0.055
